First the molecules themselves.
B1: AS579 (designed binder)
chain: MRGSHHHHHHGSDLGKKLLEAARAGQDDEVRELLKAGADVNAKDYFSHTPLHLAARNGHLKIVEVLLKAGADVNAKDFAGKTPLHLAAADGHLEIVEVLLKAGADVNAQDIFGKTPADIAADAGHEDIAEVLQKAAGSPTPTPTTPTPTPTTPTPTPTGSDLGKKLLEAARAGQDDEVRELLKAGADVNAKDYFSHTPLHLAARNGHLKIVEVLLKAGADVNAKDFAGKTPLHLAAADGHLEIVEVLLKAGADVNAQDIFGKTPADIAADAGHEDIAEVLQKAAGSPTPTPTTPTPTPTTPTPTPTGSDLGEKLLVAALYGQDDEVRELLKAGADVNAKDQWGLTPLHKAALQGHLEIVEVLLKAGADVNAKDERGHTPLHWAARFGHLEIVEVLLKAGADVNAQDQKGYTPADLAALWGHEDIAEVLQKAAGSPTPTPTTPTPTPTTPTPTPTGSDLGKKLLQAARAGQLDEVRELLKAGADVNAKDTWGFTPLHIAAESGHLEIVEVLLKAGADVNAKDVQGRTPLHIAAHSGHLEIVEVLLKAGADVNAKDFRGWTPLHLAAWSGHLEIVEILLKAGADVNAQDKSGKTPADLAARAGHQDIAEVLQKAAGSPTPTPTTPTPTPTTPTPTPTGSDLGKKLLQAARAGQLDEVRELLKAGADVNAKDTWGFTPLHIAAESGHLEIVEVLLKAGADVNAKDVQGRTPLHIAAHSGHLEIVEVLLKAGADVNAKDFRGWTPLHLAAWSGHLEIVEILLKAGADVNAQDKSGKTPADLAARAGHQDIAEVLQKAA
B2: SMA095 (designed binder)
chain: MRGSHHHHHHGSDLGKKLLEAARAGQDDEVRELLKAGADVNAKDYFSHTPLHLAARNGHLKIVEVLLKAGADVNAKDFAGKTPLHLAAADGHLEIVEVLLKAGADVNAQDIFGKTPADIAADAGHEDIAEVLQKAAGSPTPTPTTPTPTPTTPTPTPTGSDLGEKLLVAALYGQDDEVRELLKAGADVNAKDQWGLTPLHKAALQGHLEIVEVLLKAGADVNAKDERGHTPLHWAARFGHLEIVEVLLKAGADVNAQDQKGYTPADLAALWGHEDIAEVLQKAAGSPTPTPTTPTPTPTTPTPTPTGSDLGKKLLQAARAGQLDEVRELLKAGADVNAKDTWGFTPLHIAAESGHLEIVEVLLKAGADVNAKDVQGRTPLHIAAHSGHLEIVEVLLKAGADVNAKDFRGWTPLHLAAWSGHLEIVEILLKAGADVNAQDKSGKTPADLAARAGHQDIAEVLQKAAGSPTPTPTTPTPTPTTPTPTPTGSDLGKKLLEAARAGQDDEVRELLKAGADVNAKDYFSHTPLHLAARNGHLKIVEVLLKAGADVNAKDFAGKTPLHLAAADGHLEIVEVLLKAGADVNAQDIFGKTPADIAADAGHEDIAEVLQKAA
B3: SMA091 (designed binder)
chain: MRGSHHHHHHGSDLGKKLLEAARAGQDDEVRELLKAGADVNAKDYFSHTPLHLAARNGHLKIVEVLLKAGADVNAKDFAGKTPLHLAAADGHLEIVEVLLKAGADVNAQDIFGKTPADIAADAGHEDIAEVLQKAAGSPTPTPTTPTPTPTTPTPTPTGSDLGEKLLVAALYGQDDEVRELLKAGADVNAKDQWGLTPLHKAALQGHLEIVEVLLKAGADVNAKDERGHTPLHWAARFGHLEIVEVLLKAGADVNAQDQKGYTPADLAALWGHEDIAEVLQKAAGSPTPTPTTPTPTPTTPTPTPTGSDLGKKLLQAARAGQLDEVRELLKAGADVNAKDTWGFTPLHIAAESGHLEIVEVLLKAGADVNAKDVQGRTPLHIAAHSGHLEIVEVLLKAGADVNAKDFRGWTPLHLAAWSGHLEIVEILLKAGADVNAQDKSGKTPADLAARAGHQDIAEVLQKAAGSPTPTPTTPTPTPTTPTPTPTGSDLGKKLLQAARAGQLDEVRELLKAGADVNAKDTWGFTPLHIAAESGHLEIVEVLLKAGADVNAKDVQGRTPLHIAAHSGHLEIVEVLLKAGADVNAKDFRGWTPLHLAAWSGHLEIVEILLKAGADVNAQDKSGKTPADLAARAGHQDIAEVLQKAA
B4: SMA099 (designed binder)
chain: MRGSHHHHHHGSDLGKKLLEAARAGQDDEVRELLKAGADVNAKDYFSHTPLHLAARNGHLKIVEVLLKAGADVNAKDFAGKTPLHLAAADGHLEIVEVLLKAGADVNAQDIFGKTPADIAADAGHEDIAEVLQKAAGSPTPTPTTPTPTPTTPTPTPTGSDLGEKLLVAALYGQDDEVRELLKAGADVNAKDQWGLTPLHKAALQGHLEIVEVLLKAGADVNAKDERGHTPLHWAARFGHLEIVEVLLKAGADVNAQDQKGYTPADLAALWGHEDIAEVLQKAAGSPTPTPTTPTPTPTTPTPTPTGSDLGKKLLQAARAGQLDEVRELLKAGADVNAKDTWGFTPLHIAAESGHLEIVEVLLKAGADVNAKDVQGRTPLHIAAHSGHLEIVEVLLKAGADVNAKDFRGWTPLHLAAWSGHLEIVEILLKAGADVNAQDKSGKTPADLAARAGHQDIAEVLQKAAGSPTPTPTTPTPTPTTPTPTPTGSDLGKKLLQAARAGQLDEVRELLKAGADVNAKDTWGFTPLHIAAESGHLEIVEVLLKAGADVNAKDVQGRTPLHIAAHSGHLEIVEVLLKAGADVNAKDFRGWTPLHLAAWSGHLEIVEILLKAGADVNAQDKSGKTPADLAARAGHQDIAEVLQKAAGSPTPTPTTPTPTPTTPTPTPTGSDLGKKLLEAARAGQDDEVRELLKAGADVNAKDYFSHTPLHLAARNGHLKIVEVLLKAGADVNAKDFAGKTPLHLAAADGHLEIVEVLLKAGADVNAQDIFGKTPADIAADAGHEDIAEVLQKAA
B5: SMA014 (designed binder)
chain: MRGSHHHHHHGSDLGEKLLVAALYGQDDEVRELLKAGADVNAKDQWGLTPLHKAALQGHLEIVEVLLKAGADVNAKDERGHTPLHWAARFGHLEIVEVLLKAGADVNAQDQKGYTPADLAALWGHEDIAEVLQKAAGSPTPTPTTPTPTPTTPTPTPTGSDLGKKLLQAARAGQLDEVRELLKAGADVNAKDTWGFTPLHIAAESGHLEIVEVLLKAGADVNAKDVQGRTPLHIAAHSGHLEIVEVLLKAGADVNAKDFRGWTPLHLAAWSGHLEIVEILLKAGADVNAQDKSGKTPADLAARAGHQDIAEVLQKAA

One assay deals with T1, human CD40 on primary human B cells or human monocyte-derived dendritic cells (human, UniProt P25942 21-277). The assay can be described thus: cell-based or functional assay.
T1 sequence (P25942 21-277 H80K/K81H limits assumed): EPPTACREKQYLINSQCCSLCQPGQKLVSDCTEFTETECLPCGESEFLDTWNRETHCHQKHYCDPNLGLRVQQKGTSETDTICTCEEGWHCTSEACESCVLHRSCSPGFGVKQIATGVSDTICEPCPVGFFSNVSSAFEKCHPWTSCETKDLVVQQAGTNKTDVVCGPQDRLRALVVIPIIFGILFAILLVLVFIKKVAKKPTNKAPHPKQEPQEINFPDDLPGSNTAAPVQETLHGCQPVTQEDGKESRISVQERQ
In the case of B1, the “EC50, % CD86, human B cells with FAP-CHO cells, w HSA” value (“EC50, % CD86, human B cells … w HSA” below) stood at 10.2 nM; the “EC50, % CD86, human B cells with FAP-CHO cells, w/o HSA” value (shortened to “EC50, % CD86, human B cells … w/o HSA”) stood at 2.27 nM; the “EC50, MFI CD86, human B cells with FAP-CHO cells, w HSA” value (“EC50, MFI CD86, human B cells … w HSA” below) came to 23.1 nM; the “EC50, MFI CD86, human B cells with FAP-CHO cells, w/o HSA” value (“EC50, MFI CD86, human B cells … w/o HSA” for short) was found to be 10 nM.
Regarding B2, the “EC50, % CD86, human B cells … w/o HSA” value turned out to be 89.8 nM and the “EC50, MFI CD86, human B cells … w/o HSA” value came out at 288 nM.
As to B3, the “EC50, % CD86, human B cells … w HSA” value came to 2.98 nM; the “EC50, % CD86, human B cells … w/o HSA” value was 0.76 nM; the “EC50, MFI CD86, human B cells … w HSA” value came out at 8.05 nM; the “EC50, MFI CD86, human B cells … w/o HSA” value was determined as 3.93 nM.
Taken in the same sequence, the figures for B4 were 7.5 nM, 4.68 nM, 19.4 nM and 18.2 nM.
For the molecule B5, the “EC50, % CD86, human B cells … w HSA” value was found to be 6.15 nM; the “EC50, % CD86, human B cells … w/o HSA” value is 4.21 nM; the “EC50, MFI CD86, human B cells … w HSA” value was determined as 7.7 nM; the “EC50, MFI CD86, human B cells … w/o HSA” value came to 8.46 nM.

The target of a further assay is T1, human CD40 on primary human B cells or …. The experiment in a line: cell-based or functional assay. This is another data set of the same source.
Consider B1, for which the “Efficacy [MFI at highest dose], MFI CD86, human B cells with FAP-CHO cells, w HSA” value stood at 1780 MFI; the “Efficacy [MFI at highest dose], MFI CD86, human B cells with FAP-CHO cells, w/o HSA” value is 4860 MFI; the “Efficacy at highest dose, % CD86, human B cells with FAP-CHO cells, w HSA” value was 71.9%; the “Efficacy at highest dose, % CD86, human B cells with FAP-CHO cells, w/o HSA” value was 83%.
Regarding B2, the “Efficacy [MFI at highest dose], MFI CD86, human B cells with FAP-CHO cells, w HSA” value turned out to be 232 MFI; the “Efficacy [MFI at highest dose], MFI CD86, human B cells with FAP-CHO cells, w/o HSA” value came to 773 MFI; the “Efficacy at highest dose, % CD86, human B cells with FAP-CHO cells, w/o HSA” value was 28.7%.
Take B3: the “Efficacy [MFI at highest dose], MFI CD86, human B cells with FAP-CHO cells, w HSA” value is 2980 MFI; the “Efficacy [MFI at highest dose], MFI CD86, human B cells with FAP-CHO cells, w/o HSA” value amounted to 6230 MFI; the “Efficacy at highest dose, % CD86, human B cells with FAP-CHO cells, w HSA” value stood at 75.6%; the “Efficacy at highest dose, % CD86, human B cells with FAP-CHO cells, w/o HSA” value worked out at 78.2%.
B4: the “Efficacy [MFI at highest dose], MFI CD86, human B cells with FAP-CHO cells, w HSA” value is 1720 MFI; the “Efficacy [MFI at highest dose], MFI CD86, human B cells with FAP-CHO cells, w/o HSA” value worked out at 4950 MFI; the “Efficacy at highest dose, % CD86, human B cells with FAP-CHO cells, w HSA” value amounted to 71.7%; the “Efficacy at highest dose, % CD86, human B cells with FAP-CHO cells, w/o HSA” value worked out at 84.4%.
For B5, the “Efficacy [MFI at highest dose], MFI CD86, human B cells with FAP-CHO cells, w HSA” value is 2190 MFI; the “Efficacy [MFI at highest dose], MFI CD86, human B cells with FAP-CHO cells, w/o HSA” value was 2440 MFI; the “Efficacy at highest dose, % CD86, human B cells with FAP-CHO cells, w HSA” value worked out at 47%; the “Efficacy at highest dose, % CD86, human B cells with FAP-CHO cells, w/o HSA” value turned out to be 48.4%.

The target is the same in a further assay. The experiment in a line: cell-based or functional assay. The source holds these as a separate data set.
Take B1: the “Efficacy [MFI at highest dose], MFI CD86, human B cells with WT-CHO cells (no FAP), w HSA” value (“Efficacy [MFI at highest dose] … (no FAP), w HSA” for short) came to 242 MFI; the “Efficacy [MFI at highest dose], MFI CD86, human B cells with WT-CHO cells (no FAP), w/o HSA” value is 252 MFI; the “Efficacy at highest dose, % CD86, human B cells with WT-CHO cells (no FAP), w HSA” value amounted to 40.1%; the “Efficacy at highest dose, % CD86, human B cells with WT-CHO cells (no FAP), w/o HSA” value came out at 42%.
The like results for B2 were, in that order, 306 MFI, 299 MFI, 13.7% and 12.5%.
As to B3, the “Efficacy [MFI at highest dose] … (no FAP), w HSA” value stood at 296 MFI; the “Efficacy [MFI at highest dose], MFI CD86, human B cells with WT-CHO cells (no FAP), w/o HSA” value is 290 MFI; the “Efficacy at highest dose, % CD86, human B cells with WT-CHO cells (no FAP), w HSA” value amounted to 43.1%; the “Efficacy at highest dose, % CD86, human B cells with WT-CHO cells (no FAP), w/o HSA” value came out at 47.8%.
Taken in the same sequence, the figures for B4 were 274 MFI, 289 MFI, 42.5% and 47.4%.
Regarding B5, the “Efficacy [MFI at highest dose] … (no FAP), w HSA” value worked out at 310 MFI; the “Efficacy [MFI at highest dose], MFI CD86, human B cells with WT-CHO cells (no FAP), w/o HSA” value worked out at 294 MFI; the “Efficacy at highest dose, % CD86, human B cells with WT-CHO cells (no FAP), w HSA” value turned out to be 13.3%; the “Efficacy at highest dose, % CD86, human B cells with WT-CHO cells (no FAP), w/o HSA” value was determined as 13.2%.
